From publication PMC7378325

Molecular target: GFP-GABAB1b
Assay: FRET or BRET; two-photon FLIM; GFP donor, t-dimer DsRed acceptor; transfected rat spinal neurons in culture, fixed; treated with baclofen (10^-9 to 10^-3 M) or GABA (10^-4 M), with exogenous fibulin-2 protein (25 or 50 nM), co-transfected fibulin-2 or anti-fibulin-2 siRNA; mean FRET efficiency ± …

FRET efficiency (baclofen 10^-6 M): 51.2%
FRET efficiency (baclofen 10^-6 M, fibulin-2 co-transfected): 53%
B1: DsRed-GABAB2 (receptor)
chain: WTRGAPRPPPSSPPLSIMGLMPLTKEVAKGSIGRGVLPAVELAIEQIRNESLLRPYFLDLRLYDTECDNAKGLKAFYDAIKYGPNHLMVFGGVCPSVTSIIAESLQGWNLVQLSFAATTPVLADKKKYPYFFRTVPSDNAVNPAILKLLKHFRWRRVGTLTQDVQRFSEVRNDLTGVLYGEDIEISDTESFSNDPCTSVKKLKGNDVRIILGQFDQNMAAKVFCCAFEESMFGSKYQWIIPGWYEPAWWEQVHVEANSSRCLRRSLLAAMEGYIGVDFEPLSSKQIKTISGKTPQQFEREYNSKRSGVGPSKFHGYAYDGIWVIAKTLQRAMETLHASSRHQRIQDFNYTDHTLGKIILNAMNETNFFGVTGQVVFRNGERMGTIKFTQFQDSREVKVGEYNAVADTLEIINDTIRFQGSEPPKDKTIILEQLRKISLPLYSILSALTILGMIMASAFLFFNIKNRNQKLIKMSSPYMNNLIILGGMLSYASIFLFGLDGSFVSEKTFETLCTVRTWILTVGYTTAFGAMFAKTWRVHAIFKNVKMKKKIIKDQKLLVIVGGMLLIDLCILICWQAVDPLRRTVERYSMEPDPAGRDISIRPLLEHCENTHMTIWLGIVYAYKGLLMLFGCFLAWETRNVSIPALNDSKYIGMSVYNVGIMCIIGAAVSFLTRDQPNVQFCIVALVIIFCSTITLCLVFVPKLITLRTNPDAATQNRRFQFTQNQKKEDSKTSTSVTSVNQASTSRLEGLQSENHRLRMKITELDKDLEEVTMQLQDTPEKTTYIKQNHYQELNDILSLGNFTESTDGGKAILKNHLDQNPQLQWNTTEPSRTCKDPIEDINSPEHIQRRLSLQLPILHHAYLPSIGGVDASCVSPCVSPTASPRHRHVPPSFRVMVSGL
